doi:10.1101/047555
Where no end group is shown, it is not given here. fluorescein = fluorescein-aminocaproic acid; Ahx = NCCCCCC(=O)O

Molecular target: EP12, C-terminal region of MamE containing only the PDZ domains (Magnetospirillum magneticum AMB-1)
Assay: fluorescence polarisation

{fluorescein-Ahx}-WSQEMEDWFWQMPLSG [PDZ1* peptide (fluorescein-labelled, phage-derived ligand of MamE PDZ1)]
fold tighter binding than the PDZ2 peptide: 10 fold
